Key:
[1] = target: T1, Flag-mCherry-ColLeaf-Cys-6His (Pseudomonas sp Leaf83); test: EIA 8 plex n° 2: colicin coated at 100 nM, Im-RLuc8 alone at 100 nM, luciferase signal (FIG. 4, light grey bars)
[2] = target: T2, Flag-mCherry-ColAP41-Cys-6His (Pseudomonas aeruginosa AP41); test: EIA 8 plex n° 2: colicin coated at 100 nM, Im-RLuc8 at 100 nM, luminescence; light bar alone, dark bar with the 7 other unfused Im proteins
[3] = target: T3, Flag-mCherry-ColKhan-Cys-6His (Photorhabdus khanii); test: as above
Flag-EmGFP-ColE2-6His [4] = target: T4, Flag-EmGFP-ColE2-6His (Escherichia coli); test: as above
T4 construct: Coated on the plate or sprayed on the membrane; also called Colicin E2

[5] = target: T5, Flag-mCherry-ColSyr-Cys-6His (Pseudomonas syringae B728A); test: as above
Flag-mCherry-ColE9-6His [6] = target: T6, Flag-mCherry-ColE9-6His (Escherichia coli); test: as above
T6 construct: also called Colicin E9

[7] = target: T7, Flag-mCherry-ColErw-Cys-6His (Pectobacterium carotovorum); test: as above
[8] = target: T7, Flag-mCherry-ColErw-Cys-6His; test: EIA 8 plex n° 1: colicin coated at 100 nM, Im-RLuc8 alone at 100 nM, luciferase signal
[9] = target: T3, Flag-mCherry-ColKhan-Cys-6His; test: EIA 8 plex n° 2: colicin coated at 100 nM, Im-RLuc8 alone at 100 nM, luciferase signal (FIG. 4, light grey bars)
[10] = target: T1, Flag-mCherry-ColLeaf-Cys-6His; test: EIA 8 plex n° 2: colicin coated at 100 nM, Im-RLuc8 at 100 nM, luminescence; light bar alone, dark bar with the 7 other unfused Im proteins
[11] = target: T2, Flag-mCherry-ColAP41-Cys-6His; test: EIA 8 plex n° 1: colicin coated at 100 nM, Im-RLuc8 at 100 nM, luminescence; light bar alone, dark bar with the 7 other unfused Im proteins
Flag-EmGFP-ColE2-6His [12] = target: T4, Flag-EmGFP-ColE2-6His; test: as above
[13] = target: T5, Flag-mCherry-ColSyr-Cys-6His; test: as above
Flag-EmGFP-ColE7-6His [14] = target: T8, Flag-EmGFP-ColE7-6His (Escherichia coli); test: as above
T8 construct: also called Colicin E7

Flag-mCherry-ColE9-6His [15] = target: T6, Flag-mCherry-ColE9-6His; test: as above
Flag-mCherry-ColE8-6His [16] = target: T9, Flag-mCherry-ColE8-6His (Escherichia coli); test: as above
T9 construct: also called Colicin E8

[17] = target: T3, Flag-mCherry-ColKhan-Cys-6His; test: EIA 8 plex n° 1: colicin coated at 100 nM, Im-RLuc8 alone at 100 nM, luciferase signal (FIG. 3, light grey bars)
[18] = target: T2, Flag-mCherry-ColAP41-Cys-6His; test: EIA 8 plex n° 1: colicin coated at 100 nM, Im-RLuc8 alone at 100 nM, luciferase signal
[19] = target: T5, Flag-mCherry-ColSyr-Cys-6His; test: as above
Flag-EmGFP-ColE7-6His [20] = target: T8, Flag-EmGFP-ColE7-6His; test: as above
Flag-mCherry-ColE9-6His [21] = target: T6, Flag-mCherry-ColE9-6His; test: EIA 8 plex n° 2: colicin coated at 100 nM, Im-RLuc8 alone at 100 nM, luciferase signal (FIG. 4, light grey bars)
[22] = target: T1, Flag-mCherry-ColLeaf-Cys-6His; test: EIA 8 plex n° 2: colicin coated at 100 nM, Im-RLuc8 alone at 100 nM, luciferase signal
Flag-mCherry-ColE8-6His [23] = target: T9, Flag-mCherry-ColE8-6His; test: as above
Flag-EmGFP-ColE7-6His [24] = target: T8, Flag-EmGFP-ColE7-6His; test: kinetics, literature value (Li W. et al., 2004) printed above the bar pair; unit from the legend paragraph 10
Flag-mCherry-ColE9-6His [25] = target: T6, Flag-mCherry-ColE9-6His; test: as above
Flag-mCherry-ColE8-6His [26] = target: T9, Flag-mCherry-ColE8-6His; test: as above
Flag-mCherry-ColE9-6His [27] = target: T6, Flag-mCherry-ColE9-6His; test: EIA 8 plex n° 1: colicin coated at 100 nM, Im-RLuc8 alone at 100 nM, luciferase signal (FIG. 3, light grey bars)
Flag-mCherry-ColE9-6His [28] = target: T6, Flag-mCherry-ColE9-6His; test: EIA 4 plex: colicin coated at 100 nM, Im-RLuc8 alone at 100 nM, luciferase signal (FIG. 1, light grey bars)

B1: Avitag-RLuc8-ImLeaf-6His (other)
chain: MGLNDIFEAQKIEWHEGGSGGSGGSASKVYDPEQRKRMITGPQWWARCKQMNVLDSFINYYDSEKHAENAVIFLHGNATSSYLWRHVVPHIEPVARCIIPDLIGMGKSGKSGNGSYRLLDHYKYLTAWFELLNLPKKIIFVGHDWGAALAFHYAYEHQDRIKAIVHMESVVDVIESWDEWPDIEEDIALIKSEEGEKMVLENNFFVETVLPSKIMRKLEPEEFAAYLEPFKEKGEVRRPTLSWPREIPLVKGGKPDVVQIVRNYNAYLRASDDLPKLFIESDPGFFSNAIVEGAKKFPNTEFVKVKGLHFLQEDAPDEMGKYIKSFVERVLKNEQGGGSTAGGGGSKRQFADYTEAEFIAFMEDIFRENEAETDDRLDVLLDQFREITGHPDGTDLIYYCESDAECTPERITQKVKSWRAANGLPGFKSTLEGGGSHHHHHH
notes: Immunity protein fused to the luciferase RLuc8 as reporter; added in solution; also called ImLeaf-Rluc8
RLU [1]: > 2.4e+06 RLU | binding result [2]: no binding (tested: 100 nM) | binding result [3]: no binding (tested: 100 nM) | binding result (Flag-EmGFP-ColE2-6His [4]): no binding (tested: 100 nM) | binding result [5]: no binding (tested: 100 nM) | binding result (Flag-mCherry-ColE9-6His [6]): no binding (tested: 100 nM) | binding result [7]: no binding (tested: 100 nM)

B2: Avitag-RLuc8-ImKhan-6His (other)
chain: MGLNDIFEAQKIEWHEGGSGGSGGSASKVYDPEQRKRMITGPQWWARCKQMNVLDSFINYYDSEKHAENAVIFLHGNATSSYLWRHVVPHIEPVARCIIPDLIGMGKSGKSGNGSYRLLDHYKYLTAWFELLNLPKKIIFVGHDWGAALAFHYAYEHQDRIKAIVHMESVVDVIESWDEWPDIEEDIALIKSEEGEKMVLENNFFVETVLPSKIMRKLEPEEFAAYLEPFKEKGEVRRPTLSWPREIPLVKGGKPDVVQIVRNYNAYLRASDDLPKLFIESDPGFFSNAIVEGAKKFPNTEFVKVKGLHFLQEDAPDEMGKYIKSFVERVLKNEQGGGSTAGGGGSELKNKLEDYTEAEFLSLLNKIWAVDVSEEEHDNLIDHFEKLSEHPNGNGLIFYPENGVEDSPEGVLKVIKEWRAKNGKPGFKKLEGGGSHHHHHH
notes: Immunity protein fused to the luciferase RLuc8 as reporter; added in solution; also called ImKhan-Rluc8; ImKahn
RLU [8]: > 100000 RLU | RLU [9]: > 2.4e+06 RLU | binding result [10]: no binding (tested: 100 nM) | binding result [11]: no binding (tested: 100 nM) | binding result (Flag-EmGFP-ColE2-6His [12]): no binding (tested: 100 nM) | binding result [13]: no binding (tested: 100 nM) | binding result (Flag-EmGFP-ColE7-6His [14]): no binding (tested: 100 nM) | binding result (Flag-mCherry-ColE9-6His [15]): no binding (tested: 100 nM) | binding result (Flag-mCherry-ColE8-6His [16]): no binding (tested: 100 nM) | RLU [17]: > 2e+06 RLU

B3: Myc-RLuc8-Im9-6His (other)
chain: MGGEQKLISEEDLGGSASKVYDPEQRKRMITGPQWWARCKQMNVLDSFINYYDSEKHAENAVIFLHGNATSSYLWRHVVPHIEPVARCIIPDLIGMGKSGKSGNGSYRLLDHYKYLTAWFELLNLPKKIIFVGHDWGAALAFHYAYEHQDRIKAIVHMESVVDVIESWDEWPDIEEDIALIKSEEGEKMVLENNFFVETVLPSKIMRKLEPEEFAAYLEPFKEKGEVRRPTLSWPREIPLVKGGKPDVVQIVRNYNAYLRASDDLPKLFIESDPGFFSNAIVEGAKKFPNTEFVKVKGLHFLQEDAPDEMGKYIKSFVERVLKNEQKLELKHSISDYTEAEFLQLVTTICNADTSSEEELVKLVTHFEEMTEHPSGSDLIYYPKEGDDDSPSGIVNTVKQWRAANGKLEGGGSHHHHHH
notes: Immunity protein fused to the luciferase RLuc8 as reporter; added in solution; also called Im9-RLuc8; Im9-Rluc8
RLU [18]: > 100000 RLU | RLU [19]: > 100000 RLU | RLU (Flag-EmGFP-ColE7-6His [20]): > 100000 RLU | RLU (Flag-mCherry-ColE9-6His [21]): > 2.4e+06 RLU | binding result [10]: no binding (tested: 100 nM) | binding result [11]: no binding (tested: 100 nM) | binding result [13]: no binding (tested: 100 nM) | RLU [22]: > 100000 RLU | RLU (Flag-mCherry-ColE8-6His [23]): > 100000 RLU | Kd (Flag-EmGFP-ColE7-6His [24]): 38 nM | Kd (Flag-mCherry-ColE9-6His [25]): 0.024 pM | Kd (Flag-mCherry-ColE8-6His [26]): 64 nM | RLU (Flag-mCherry-ColE9-6His [27]): > 2e+06 RLU | RLU (Flag-mCherry-ColE9-6His [28]): > 400000 RLU

— patent publication US20210373004A1 (BIOASTER, published 2021)
